Assay results from the Human Domainome abundance scans (Beltran et al. 2025).

B1: Segment polarity protein dishevelled homolog DVL-3, residues 2 to 81; numbered along this chain, Q92997 (parent)
chain: GETKIIYHLDGQETPYLVKLPLPAERVTLADFKGVLQRPSYKFFFKSMDDDFGVVKEEISDDNAKLPCFNGRVVSWLVSA

Variants of: B1
Test: abundance fitness (aPCA) (normalised: wild type 0, dead -1); higher = more abundant; growth selection in yeast, the domain comes from the species named
Details: Homo sapiens

Abundance fitness of substitutions, site by site:
A80: G 0.014; T 0.185; E 0.191; S 0.088; D 0.267; F -0.098; Y -0.405; Q -0.029; R -0.164; N 0.11; H -0.089; C -0.015; V -0.105; M -0.101; L -0.239; I -0.004; K 0.212
W76: C -0.737; L -0.842; I -1.4; F -0.482; P -0.625; Q -0.943; N -0.661; H -1.2; E -0.891; Y -0.456; K -0.709; T -0.579; R -0.72; V -0.565; M -0.678; G -0.648
F69: M -0.201; W -0.191; H 0.001; N -0.361; V -0.078; A -0.613; S -0.163; Q -0.423; E -0.108; D -0.352; Y 0.061; K -0.146; T -0.352; G -0.605; C -0.148; L -0.214; P -0.918; R -0.272
G71: I -0.249; R -0.895; A -0.782; Q -0.763; W -0.524; C -0.957; M -1.4; T -0.919; L -0.538; H -0.281; S -0.512; Y -0.64; V -0.888; N -0.351; F -0.725; D -0.482
C68: W -0.793; M -0.22; S 0.081; H 0.143; G -0.699; L 0.061; D -0.624; Q -0.189; I -0.049; A -0.003; T 0.103; F -0.112; E -0.645; R -0.875; P -0.759; N -0.117
R72: S 0.149; T 0.318; L 0.216; P -1.04; I 0.269; D -0.272; G -0.416; Q 0.243; C 0.222; N 0.029; K 0.102; W 0.139; F 0.219; M 0.2; H 0.183; A 0.163
L66: Y -0.508; T -0.772; V -0.864; S -0.747; R -0.706
V78: Y 0.102; Q -0.486; C -0.131; N -0.585; T -0.127; S -0.587; K -0.105; L -0.398; F -0.162; I -0.139; W -0.228; E -0.008; A -0.836; D -0.708; R -0.322; G -0.558
